Measurements published in FireProtDB (doi:10.1021/bi00135a019).

Details: Aspergillus oryzae (strain ATCC 42149 / RIB 40), DSC, reversible: yes, whole UniProt chain shown; for Tm / heat capacity change of unfolding / unfolding enthalpy (calorimetric) / unfolding enthalpy (van 't Hoff): Thermal; for denaturant m value / denaturant midpoint (higher = more stable) / unfolding free energy: Urea, MOPS 30 mM
[1] = pH 7, PIPES 30 mM, MgCl2 0.01 M
[2] = pH 7, PIPES 30 mM, MgCl2 0.02 M
[3] = pH 7, PIPES 30 mM, MgCl2 0.03 M
[4] = pH 7, PIPES 30 mM, MgCl2 0.06 M
[5] = pH 7, PIPES 30 mM, MgCl2 0.10 M
[6] = pH 7, PIPES 30 mM, MgCl2 0.20 M
[7] = pH 7, PIPES 30 mM, MgCl2 0.40 M
[8] = pH 7, PIPES 30 mM, MgCl2 0.60 M
[9] = pH 7, PIPES 30 mM, MgCl2 0.80 M

B1: Guanyl-specific ribonuclease T1 wild type, P00651 (protein)
chain: MMYSKLLTLTTLLLPTALALPSLVERACDYTCGSNCYSSSDVSTAQAAGYQLHEDGETVGSNSYPHKYNNYEGFDFSVSSPYYEWPILSSGDVYSGGSPGADRVVFNENNQLAGVITHTGASGNNFVECT
pH 2.2, glycine 30 mM
  Tm: 45.4 °C
  heat capacity change of unfolding: 1.53 kcal/mol/K
  unfolding enthalpy (calorimetric): 89.6 kcal/mol
  unfolding enthalpy (van 't Hoff): 114 kcal/mol
pH 2.8, glycine 30 mM
  Tm: 49 °C
  heat capacity change of unfolding: 1.64 kcal/mol/K
  unfolding enthalpy (calorimetric): 95.3 kcal/mol
  unfolding enthalpy (van 't Hoff): 109 kcal/mol
pH 4, acetate 30 mM
  Tm: 56.7 °C
  heat capacity change of unfolding: 2.47 kcal/mol/K
  unfolding enthalpy (calorimetric): 102 kcal/mol
  unfolding enthalpy (van 't Hoff): 114 kcal/mol
pH 5, acetate 30 mM
  Tm: 56.5 °C
  heat capacity change of unfolding: 1.74 kcal/mol/K
  unfolding enthalpy (calorimetric): 106 kcal/mol
  unfolding enthalpy (van 't Hoff): 117 kcal/mol
pH 7, 14.9 °C
  denaturant m value: 1.26 kcal/mol/M
  denaturant midpoint (higher = more stable): 5.65 M
  unfolding free energy: 6.84 kcal/mol
pH 7, 21.1 °C
  denaturant m value: 1.1 kcal/mol/M
  denaturant midpoint (higher = more stable): 4.98 M
  unfolding free energy: 6.03 kcal/mol
pH 7, 23.05 °C
  denaturant m value: 1.2 kcal/mol/M
  denaturant midpoint (higher = more stable): 4.86 M
  unfolding free energy: 5.89 kcal/mol
pH 7, 25 °C
  denaturant m value: 1.2 kcal/mol/M
  denaturant midpoint (higher = more stable): 4.58 M
  unfolding free energy: 5.55 kcal/mol
pH 7, 27 °C
  denaturant m value: 1.2 kcal/mol/M
  denaturant midpoint (higher = more stable): 4.14 M
  unfolding free energy: 5.01 kcal/mol
pH 7, 29 °C
  denaturant m value: 1.27 kcal/mol/M
  denaturant midpoint (higher = more stable): 3.93 M
  unfolding free energy: 4.76 kcal/mol
pH 7, 34.75 °C
  denaturant m value: 1.22 kcal/mol/M
  denaturant midpoint (higher = more stable): 2.92 M
  unfolding free energy: 3.54 kcal/mol
pH 7, 40.1 °C
  denaturant m value: 1.28 kcal/mol/M
  denaturant midpoint (higher = more stable): 2.13 M
  unfolding free energy: 2.58 kcal/mol
pH 7, PIPES 30 mM, MgCl2 0 M
  Tm: 48.9 °C
  heat capacity change of unfolding: 1.35 kcal/mol/K
  unfolding enthalpy (calorimetric): 95.5 kcal/mol
  unfolding enthalpy (van 't Hoff): 118 kcal/mol
[1]
  Tm: 52.4 °C
  heat capacity change of unfolding: 1.22 kcal/mol/K
  unfolding enthalpy (calorimetric): 98.2 kcal/mol
  unfolding enthalpy (van 't Hoff): 117 kcal/mol
[2]
  Tm: 53.5 °C
  heat capacity change of unfolding: 0.86 kcal/mol/K
  unfolding enthalpy (calorimetric): 98.9 kcal/mol
  unfolding enthalpy (van 't Hoff): 117 kcal/mol
[3]
  Tm: 54 °C
  heat capacity change of unfolding: 0.94 kcal/mol/K
  unfolding enthalpy (calorimetric): 99.1 kcal/mol
  unfolding enthalpy (van 't Hoff): 119 kcal/mol
[4]
  Tm: 55.4 °C
  heat capacity change of unfolding: 1.02 kcal/mol/K
  unfolding enthalpy (calorimetric): 104 kcal/mol
  unfolding enthalpy (van 't Hoff): 120 kcal/mol
[5]
  Tm: 56.6 °C
  heat capacity change of unfolding: 1.11 kcal/mol/K
  unfolding enthalpy (calorimetric): 104 kcal/mol
  unfolding enthalpy (van 't Hoff): 121 kcal/mol
[6]
  Tm: 58.1 °C
  heat capacity change of unfolding: 0.71 kcal/mol/K
  unfolding enthalpy (calorimetric): 104 kcal/mol
  unfolding enthalpy (van 't Hoff): 122 kcal/mol
[7]
  Tm: 60.1 °C
  heat capacity change of unfolding: 1.22 kcal/mol/K
  unfolding enthalpy (calorimetric): 108 kcal/mol
  unfolding enthalpy (van 't Hoff): 122 kcal/mol
[8]
  Tm: 61.9 °C
  heat capacity change of unfolding: 1.07 kcal/mol/K
  unfolding enthalpy (calorimetric): 109 kcal/mol
  unfolding enthalpy (van 't Hoff): 125 kcal/mol
[9]
  Tm: 63 °C
  heat capacity change of unfolding: 1.14 kcal/mol/K
  unfolding enthalpy (calorimetric): 111 kcal/mol
  unfolding enthalpy (van 't Hoff): 121 kcal/mol
pH 7, PIPES 30 mM, NaCl 0 M
  Tm: 48.9 °C
  heat capacity change of unfolding: 1.35 kcal/mol/K
  unfolding enthalpy (calorimetric): 95.5 kcal/mol
  unfolding enthalpy (van 't Hoff): 118 kcal/mol
pH 7, PIPES 30 mM, NaCl 0.05 M
  Tm: 51 °C
  heat capacity change of unfolding: 0.93 kcal/mol/K
  unfolding enthalpy (calorimetric): 99.5 kcal/mol
  unfolding enthalpy (van 't Hoff): 120 kcal/mol
pH 7, PIPES 30 mM, NaCl 0.10 M
  Tm: 52.1 °C
  heat capacity change of unfolding: 1.6 kcal/mol/K
  unfolding enthalpy (calorimetric): 101 kcal/mol
  unfolding enthalpy (van 't Hoff): 119 kcal/mol
pH 7, PIPES 30 mM, NaCl 0.20 M
  Tm: 53.9 °C
  heat capacity change of unfolding: 1.31 kcal/mol/K
  unfolding enthalpy (calorimetric): 105 kcal/mol
  unfolding enthalpy (van 't Hoff): 121 kcal/mol
pH 7, PIPES 30 mM, NaCl 0.40 M
  Tm: 56.5 °C
  heat capacity change of unfolding: 1.4 kcal/mol/K
  unfolding enthalpy (calorimetric): 107 kcal/mol
  unfolding enthalpy (van 't Hoff): 121 kcal/mol
pH 7, PIPES 30 mM, NaCl 0.60 M
  Tm: 58.5 °C
  heat capacity change of unfolding: 1.31 kcal/mol/K
  unfolding enthalpy (calorimetric): 111 kcal/mol
  unfolding enthalpy (van 't Hoff): 122 kcal/mol
pH 7, PIPES 30 mM, NaCl 0.80 M
  Tm: 60.2 °C
  heat capacity change of unfolding: 2.11 kcal/mol/K
  unfolding enthalpy (calorimetric): 111 kcal/mol
  unfolding enthalpy (van 't Hoff): 124 kcal/mol
pH 7, PIPES 30 mM, NaCl 1.20 M
  Tm: 63.2 °C
  heat capacity change of unfolding: 1.42 kcal/mol/K
  unfolding enthalpy (calorimetric): 112 kcal/mol
  unfolding enthalpy (van 't Hoff): 126 kcal/mol
pH 7, PIPES 30 mM, NaCl 1.60 M
  Tm: 65.6 °C
  heat capacity change of unfolding: 1.37 kcal/mol/K
  unfolding enthalpy (calorimetric): 115 kcal/mol
  unfolding enthalpy (van 't Hoff): 125 kcal/mol
pH 7, PIPES 30 mM
  Tm: 48.9 °C
  heat capacity change of unfolding: 1.35 kcal/mol/K
  unfolding enthalpy (calorimetric): 95.5 kcal/mol
  unfolding enthalpy (van 't Hoff): 119 kcal/mol
pH 7.5, PIPES 30 mM
  Tm: 46.7 °C
  heat capacity change of unfolding: 1.71 kcal/mol/K
  unfolding enthalpy (calorimetric): 93.2 kcal/mol
  unfolding enthalpy (van 't Hoff): 121 kcal/mol
pH 8, PIPES 30 mM
  Tm: 45.8 °C
  heat capacity change of unfolding: 0.88 kcal/mol/K
  unfolding enthalpy (calorimetric): 91.6 kcal/mol
  unfolding enthalpy (van 't Hoff): 116 kcal/mol
pH 9, glycine 30 mM
  Tm: 40.7 °C
  heat capacity change of unfolding: 0.42 kcal/mol/K
  unfolding enthalpy (calorimetric): 76.5 kcal/mol
  unfolding enthalpy (van 't Hoff): 114 kcal/mol
pH 10, glycine 30 mM
  Tm: 39.4 °C
  unfolding enthalpy (calorimetric): 76.9 kcal/mol
  unfolding enthalpy (van 't Hoff): 104 kcal/mol
